The values below come from patent US20120201781A1 (AbbVie / Abbott, published 2012).

The target of assay [1] is T1, recombinant human IL-1β (human, UniProt P01584 117-269).
T1 construct: Recombinant protein; also called hIL-1β; rhIL-1β
Put plainly: SPR (Biacore), mAb captured via goat anti-mouse IgG. In general terms: Surface plasmon resonance follows binding to a sensor surface in real time, without labels.

In assay [2] the target is T1, recombinant human IL-1β. Kind of assay: cell-based or functional assay.
In assay [3] the target is T1, recombinant human IL-1β. Kind of assay: cell-based or functional assay. This is another data set of the same source.
For assay [4], the target named is T1, recombinant human IL-1β. Kind of assay: SPR (Biacore).
Assay [5] concerns the target T1, recombinant human IL-1β. Kind of assay: SPR (Biacore), saturating binding.
The target of assay [6] is T2, recombinant human IL-1α (human, UniProt P01583 113-271).
T2 sequence: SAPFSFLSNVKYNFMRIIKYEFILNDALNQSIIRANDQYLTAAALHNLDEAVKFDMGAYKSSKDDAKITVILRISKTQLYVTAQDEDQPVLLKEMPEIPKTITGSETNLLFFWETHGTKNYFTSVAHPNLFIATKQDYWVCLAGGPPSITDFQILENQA
Put plainly: cell-based or functional assay.

For assay [7], the target named is T2, recombinant human IL-1α. Kind of assay: cell-based or functional assay. This is another data set of the same source.
The target in assay [8] is T2, recombinant human IL-1α. Kind of assay: SPR (Biacore), hIL-1α as 2nd antigen after hIL-1β. On the procedure:
(§1) In addition, tetravalent dual-specific antigen binding of DVD-Ig binding protein was also analyzed by Biacore (Table 14). DVD-Ig binding protein was first captured via a goat anti-human Fc antibody on the Biacore sensor chip, and the first antigen was injected and a binding signal observed. As the DVD-Ig binding protein was saturated by the first antigen, the second antigen was then injected and the second signal observed. This was done either by first injecting IL-1β then IL-1α or by first injecting IL-1α followed by IL-1β for DVD2-Ig binding protein. In either sequence, a dual-binding activity was detected. Similar results were obtained for DVD1-Ig binding protein. Thus, each DVD-Ig binding protein was able to bind both antigens simultaneously as a dual-specific tetravalent molecule. […] Upon the injection of the second antigen, while DVD-Ig binding protein was already occupied by the first antigen, the stoichiometry of both DVD-Igs binding protein to the second antigen (i.e., hIL-1α or hIL-1β was between 1.0 and 1.3. Thus, DVD-Ig binding protein was able to bind two IL-1α and two IL-β molecules. DVD-Ig binding protein was first captured via a goat anti-human Fc antibody on the Biacore sensor chip, and the first antigen was injected and a binding signal observed, followed by the injection of the second antigen.

For assay [9], the target named is T1, recombinant human IL-1β. Kind of assay: SPR (Biacore), hIL-1β as 1st antigen. On the procedure:
as §1

Assay [10] addresses T2, recombinant human IL-1α. Put plainly: SPR (Biacore). On the procedure: (§2) The equilibrium dissociation constant (M) of the reaction between DVD-Ig molecule and rhIL1α/β was then calculated from the kinetic rate constants by the following formula: KD=koff/kon. Aliquots of rhIL1α/β samples were also simultaneously injected over a blank reference and reaction CM surface to record and subtract any nonspecific binding background to eliminate the majority of the refractive index change and injection noise. Surfaces were regenerated with two subsequent […] injections of 10 mM Glycine (pH 1.5) at a flow rate of […]. The anti-Fc antibody immobilized surfaces were completely regenerated and retained their full capture capacity over twelve cycles. The apparent stoichiometry of the captured DVD-Ig-rhIL1α/β complex was calculated under saturating binding conditions (steady-state equilibrium) using the following formula: […]
(§3) The affinity of the two DVD-Ig binding proteins to hIL-1 as compared to the affinity of chimeric antibodies to hIL-1 was similar as indicated by the evaluation of the stoichiometry to IL-1. Both chimeric antibodies, being bivalent monospecific, bound to IL-1α and IL-1β on Biacore with a stoichiometry of 1.6 and 1.7, respectively. This is common for an IgG due to inter-molecular interference when antibodies are immobilized densely on the Biacore sense chip resulting in stoichiometry being in the range from 1.5 to 2.0.

For assay [11], the target named is T2, recombinant human IL-1α. Kind of assay: SPR (Biacore), hIL-1α as 1st antigen. On the procedure: as §1
Assay [12] has as its target T2, recombinant human IL-1α. Put plainly: SPR (Biacore 3000), binder captured via goat anti-human IgG Fc. On the procedure: (§4) Approximately, 5000 RU of goat anti-human IgG Fcγ fragment specific polyclonal antibody (Pierce Biotechnology Inc, Rockford, Ill.) diluted in 10 mM sodium acetate (pH 4.5) was directly immobilized across a CM5 research grade biosensor chip using a standard amine coupling kit according to manufacturer's instructions and procedures at […]. Unreacted moieties on the biosensor surface were blocked with ethanolamine. Modified carboxymethyl dextran surface in flowcell 2 and 4 was used as a reaction surface. Unmodified carboxymethyl dextran without goat anti-human IgG in flow cell 1 and 3 was used as the reference surface. For kinetic analysis, rate equations derived from the 1:1 Langmuir binding model were fitted simultaneously to association and dissociation phases of all ten injections (using global fit analysis) using the Bioevaluation 4.0.1 software. Purified DVD-Ig samples were diluted in HEPES-buffered saline for capture across goat anti-human IgG Fc specific reaction surfaces and injected over reaction matrices at a flow rate of […]. The association and dissociation rate constants, kon (M-1s-1) and koff (s-1) were determined under a continuous flow rate of 25 ml/minute. […] The equilibrium dissociation constant (M) of the reaction between DVD-Ig molecule and rhIL1α/β was then calculated from the kinetic rate constants by the following formula: KD=koff/kon. Aliquots of rhIL1α/β samples were also simultaneously injected over a blank reference and reaction CM surface to record and subtract any nonspecific binding background to eliminate the majority of the refractive index change and injection noise. Surfaces were regenerated with two subsequent […] injections of 10 mM Glycine (pH 1.5) at a flow rate of […]. The anti-Fc antibody immobilized surfaces were completely regenerated and retained their full capture capacity over twelve cycles. The apparent stoichiometry of the captured DVD-Ig-rhIL1α/β complex was calculated under saturating binding conditions (steady-state equilibrium) using the following formula: […]

In assay [13] the target is T1, recombinant human IL-1β. Described as above. On the procedure: as §4
The target in assay [14] is T2, recombinant human IL-1α. Kind of assay: SPR (Biacore 3000), saturating binding. On the procedure:
as §2, with “The association and dissociation rate constants, kon (M-1s-1) and koff (s-1) were determined under a continuous flow rate of 25 ml/minute. […] The equilibrium” for “The equilibrium”
as §3

Assay [15] addresses T1, recombinant human IL-1β. Kind of assay: SPR (Biacore 3000), saturating binding. On the procedure:
as §2, with “The association and dissociation rate constants, kon (M-1s-1) and koff (s-1) were determined under a continuous flow rate of 25 ml/minute. […] The equilibrium” for “The equilibrium”
as §3

In assay [16] the target is T1, recombinant human IL-1β. Put plainly: SPR (Biacore), hIL-1β as 2nd antigen after hIL-1α. On the procedure:
as §1

The target of assay [17] is T1, recombinant human IL-1β. Kind of assay: cell-based or functional assay. The source holds these as a separate data set.
Assay [18] concerns the target T1, recombinant human IL-1β. Kind of assay: SPR (Biacore). On the procedure:
as §2, §3
This is another data set of the same source.

Assay [19] addresses T2, recombinant human IL-1α. Put plainly: SPR (Biacore), mAb captured via goat anti-mouse IgG.
Assay [20] has as its target T2, recombinant human IL-1α. Kind of assay: cell-based or functional assay. This is another data set of the same source.
Assay [21] deals with T2, recombinant human IL-1α. Kind of assay: SPR (Biacore). The source holds these as a separate data set.
In assay [22] the target is T2, recombinant human IL-1α. Kind of assay: SPR (Biacore), saturating binding.

B1: murine monoclonal antibody 13F5.G5 (antibody, V domains shown)
VH: QVQLQQSGAELVRPGSSVKISCKASGYAFSSYWMNWVKQRPGQGLEWIGQIYPGDGDTNYNGKFKGKATLTADKSSSTSYMQLSGLTSEDSAMYFCVRFPTGNDYYAMDYWGQGTSVTVSS
VL: NIVLTQSPASLAVSLGQRATISCRASESVDSYGNSYMHWYQQKPGQPPKLLIYLASNLESGVPARFSGSGSRTDFTLTIDPVEADDAATYYCQQNNEDPFTFGSGTKLEIKR
notes: Murine hybridoma mAb, anti-hIL-1β
Regarding B1, the Kd in [1] was found to be 0.291 nM. Besides, the “Potency (IC50) M, MRC-5 bioassay” value in [2] was found to be 0.6 nM. Further, the “IC50 (M), MRC-5 bioassay (inhibition of IL-8 production)” value in [3] was found to be 6e-10 M. In assay [4], the Kd turned out to be 0.291 nM, the koff is 0.000621 s⁻¹ and the on-rate (kon) came out at 2.13e+06 M⁻¹ s⁻¹. Also, the Stoichiometry in [5] worked out at 1.8.

B2: hIL-1α/β DVD1-Ig binding protein (bispecific antibody, human IgG1, kappa)
heavy: not shown
light: NIVLTQSPASLAVSLGQRATISCRASESVDSYGNSYMHWYQQKPGQPPKLLIYLASNLESGVPARFSGSGSRTDFTLTIDPVEADDAATYYCQQNNEDPFTFGSGTKLEIKRNIQMTQTTSSLSASLGDRVTISCRASQDISNCLNWYQQKPDGTVKLLIYYTSRLHSGVPSRFSGSGSGTDYSLTISNLEQEDIATYFCQQGKTLPYAFGGGTKLEINRRTVAAPSVFIFPPSDEQLKSGTASVVCLLNNFYPREAKVQWKVDNALQSGNSQESVTEQDSKDSTYSLSSTLTLSKADYEKHKVYACEVTHQGLSSPVTKSFNRGEC
notes: 13F5.G5 variable domains fused directly (no linker) to the N-terminus of 3D12.E3 variable domains, human Cγ1/Cκ
Consider B2, for which the “Potency (IC50) M, MRC-5 bioassay” value in assay [6] was found to be 2.3 nM; in assay [2] it was 3.1 nM. The “neutralizing activity in MRC-5 bioassay, fold less than the chimeric antibodies” value in [7] amounted to 3 fold. Moreover, the results for the “Stoichiometry hIL-1α:DVD-Ig” value in assay [8] and in assay [11] were 1.1 and 2.3, respectively. Also, the figures for the “Stoichiometry hIL-1β:DVD-Ig” value in [9] and in assay [16] were 1.5 and 1, respectively. In addition, the “fold lower affinity than the chimeric 3D12.E3 antibody” value in assay [10] lay within 2 to 3 fold. In addition, the dissociation constant (Kd) in [12] is 2.83 nM; in assay [13], 2.6 nM. The dissociation rate constant (koff) in assay [12] was found to be 0.000105 s⁻¹; in assay [13] it was 0.00159 s⁻¹. Further, the results for the kon in assay [12] and in assay [13] were 37000 M⁻¹ s⁻¹ and 609000 M⁻¹ s⁻¹, respectively. Also, the Stoichiometry was 1.8 in assay [14] and 1.5 in assay [15].

B3: hIL-1α/β DVD2-Ig binding protein (bispecific antibody, human IgG1, kappa)
heavy: not shown
light: NIVLTQSPASLAVSLGQRATISCRASESVDSYGNSYMHWYQQKPGQPPKLLIYLASNLESGVPARFSGSGSRTDFTLTIDPVEADDAATYYCQQNNEDPFTFGSGTKLEIKRADAAPNIQMTQTTSSLSASLGDRVTISCRASQDISNCLNWYQQKPDGTVKLLIYYTSRLHSGVPSRFSGSGSGTDYSLTISNLEQEDIATYFCQQGKTLPYAFGGGTKLEINRTVAAPSVFIFPPSDEQLKSGTASVVCLLNNFYPREAKVQWKVDNALQSGNSQESVTEQDSKDSTYSLSSTLTLSKADYEKHKVYACEVTHQGLSSPVTKSFNRGEC
notes: 13F5.G5 V - linker (heavy AKTTPP, light ADAAP) - 3D12.E3 V, human Cγ1/Cκ
For B3, the “Potency (IC50) M, MRC-5 bioassay” value in assay [6] was 2.9 nM; in [2] it was 1.6 nM. The “neutralizing activity in MRC-5 bioassay, fold less than the chimeric antibodies” value in assay [7] is 3 fold. For the same molecule, the “neutralizing activity in MRC-5 bioassay, fold higher than DVD1-Ig” value in [17] was found to be 3 fold. Moreover, the “Stoichiometry hIL-1α:DVD-Ig” value came to 1.2 in assay [8] and 1.8 in assay [11]. Besides, the figures for the “Stoichiometry hIL-1β:DVD-Ig” value in assay [9] and in assay [16] were 1.6 and 1.3, respectively. In [10], the “fold lower affinity than the chimeric 3D12.E3 antibody” value was 3 fold. The “fold higher affinity than DVD1-Ig binding protein” value in assay [18] was 3 fold. Moreover, the Kd in [12] came out at 3.42 nM; in assay [13], 0.798 nM. Further, the off-rate (koff) was 0.000252 s⁻¹ in assay [12] and 0.00095 s⁻¹ in [13]. The association rate constant (kon) in assay [12] came out at 73500 M⁻¹ s⁻¹; in assay [13] it was 1.19e+06 M⁻¹ s⁻¹. Also, the Stoichiometry in assay [14] was found to be 2; in assay [15], 1.8.

B4: murine monoclonal antibody 3D12.E3 (antibody, V domains shown)
VH: QIQLVQSGPELKKPGETVKISCKASGYTFRNYGMNWVKQAPGKDLKRMAWINTYTGESTYADDFKGRFAFSLETSASTAYLQINNLKNEDTATYFCARGIYYYGSSYAMDYWGQGTSVTVSS
VL: NIQMTQTTSSLSASLGDRVTISCRASQDISNCLNWYQQKPDGTVKLLIYYTSRLHSGVPSRFSGSGSGTDYSLTISNLEQEDIATYFCQQGKTLPYAFGGGTKLEINR
notes: Murine hybridoma mAb, anti-hIL-1α
Turning to B4, in assay [19], the Kd turned out to be 1.11 nM. Further, in assay [6], the “Potency (IC50) M, MRC-5 bioassay” value turned out to be 0.67 nM. In addition, the “IC50 (M), MRC-5 bioassay (inhibition of IL-8 production)” value in assay [20] was 6.7e-10 M. Further, in [21], the equilibrium dissociation constant (Kd) stood at 1.11 nM, the off-rate (koff) came out at 0.000713 s⁻¹ and the association rate constant (kon) turned out to be 643000 M⁻¹ s⁻¹. The Stoichiometry in assay [22] came to 2.

The term Kd denotes the constant that tells how readily two partners part at equilibrium. For orientation: koff means the rate constant with which the complex falls apart. What is called kon is the second-order rate constant of association.
